Laboratory results from US12448442B2, “Treatment of T cell lymphoma” (INNATE PHARMA, priority 2019, dated 2025).

How the values were obtained:
RAJI-KIR3DL2 cells = experiment: KIR3DL2 surface expression by flow cytometry on RAJI-KIR3DL2 cells; format: cell-based; conditions: RAJI-KIR3DL2, same experimental conditions
Experimental: (§1) RAJI-KIR3DL2 (48 hour incubation) (FIG. 2, left hand panel) or Hut 78 ([…]; 24 hour incubation (FIG. 2, right hand panel) were incubated with ascending doses of gemcitabine and oxaliplatin. Median intensity of fluorescence of KIR3DL2 on tumor cell line surface was analyzed by flow cytometry.
(§2) Briefly, Hut78 cells (Sezary Syndrome cell line) or RAJI-KIR3DL2 cells (RAJI B-NHL cell line transfected with human KIR3DL2 were incubated with ascending doses of gemcitabine and oxaliplatin. Median intensity of fluorescence of KIR3DL2 on tumor cell line surface was analyzed by flow cytometry.

Hut78 cells = experiment: KIR3DL2 surface expression by flow cytometry on Hut78 cells; format: cell-based; conditions: Hut78 / TCL cells
Experimental: as §1, §2

[1] = tested on: KIR3DL2-expressing Sézary Syndrome cell line (Hut 78); experiment: In vitro cellular cytotoxicity (ADCC) assay with allogeneic NK cells and Hut 78 cells, with increasing concentrations of anti-KIR3DL2 antibody; format: cell-based; conditions: chemotherapeutic agent added to lacutamab, allogeneic NK cells, FIG. 1
Experimental: Consequently, we sought to evaluate whether chemotherapeutic agents affect the NK cell-mediated ADCC activity of humanized 2B12 antibody lacutamab having human IgG1 isotype and the VH and VL amino acid sequences shown in SEQ ID NOS: 49 and 44, respectively. Chemotherapeutic agents were added, alone or in combination, to an in vitro cellular cytotoxicity (ADCC) assay with allogeneic NK cells and KIR3DL2-expressing Sézary Syndrome cell line (Hut 78), in presence of increasing concentrations of the anti-KIR3DL2 antibody.

RAJI-KIR3DL2 = format: in vivo; conditions: twice a week; antibody 0.3 μg per injection, gemcitabine 50 mg/kg, oxaliplatin 5 mg/kg; FIG. 3
Source text: A xenograft model in the CB17-SCID mouse whereby the immunocompromised mouse strain that retains fully functional NK cells and macrophages. […] The B-NHL cell line RAJI was transfected to stably express KIR3DL2 (RAJI-KIR3DL2), and the transfectants were inoculated (5×10^6 cells) to the SCID mice by IV thereby providing a disseminated tumor model. Initially, individual doses of gemcitabine and oxaliplatin were established in this xenograft model.

refractory SS patients = experiment: Clinical trials of single agent IPH4102 in refractory Sézary Syndrome patients; format: in vivo, human; conditions: repeated administrations of single agent
Source text: Antibodies that specifically bind to KIR3DL2 are well known in the art. Innate Pharma for example have described numerous anti-KIR3DL2 antibodies directed to a range of different epitopes on KIR3DL2, e.g., antibodies 15C11, 19H12, 22B2, 18B10, 12B11, 13H1, 10F6, 2B12, 18C6, 9E10, 10G5, 13H1, 5H1, 1E2, 1C3 and 20E9 described in PCT publication nos. WO2014/044681 and WO2014/044686. […] These encouraging results, moreover with few side effects and the ability to deplete malignant KIR3DL2-expressing cells without causing the depletion of healthy KIR3DL2-expressing NK and T cells provides an important advance in treating TCLs.

KIR3DL2 [2] = target: T1, KIR3DL2 (Homo sapiens, UniProt P43630); set-up: host or cells: tumor cells (not further named); conditions: into cells / tumor cells; cited from earlier work
T1 sequence (P43630 22-455): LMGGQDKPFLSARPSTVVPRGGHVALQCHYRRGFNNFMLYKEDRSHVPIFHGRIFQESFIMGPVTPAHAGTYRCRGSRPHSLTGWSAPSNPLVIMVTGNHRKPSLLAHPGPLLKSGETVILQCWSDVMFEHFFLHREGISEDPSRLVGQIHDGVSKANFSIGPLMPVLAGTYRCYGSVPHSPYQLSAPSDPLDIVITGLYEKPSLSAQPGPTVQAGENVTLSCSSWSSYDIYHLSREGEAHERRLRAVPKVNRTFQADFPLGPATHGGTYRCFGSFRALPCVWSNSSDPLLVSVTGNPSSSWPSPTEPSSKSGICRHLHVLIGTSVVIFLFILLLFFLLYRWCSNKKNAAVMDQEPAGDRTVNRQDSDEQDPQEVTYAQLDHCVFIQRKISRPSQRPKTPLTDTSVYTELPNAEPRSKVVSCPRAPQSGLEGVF

KIR3DL2 [3] = target: T1, KIR3DL2; conditions: cited from earlier work
human KIR3DL1 = human KIR3DL1 (Homo sapiens, UniProt P43629); conditions: cited from earlier work
Chain of human KIR3DL1 (P43629 22-444): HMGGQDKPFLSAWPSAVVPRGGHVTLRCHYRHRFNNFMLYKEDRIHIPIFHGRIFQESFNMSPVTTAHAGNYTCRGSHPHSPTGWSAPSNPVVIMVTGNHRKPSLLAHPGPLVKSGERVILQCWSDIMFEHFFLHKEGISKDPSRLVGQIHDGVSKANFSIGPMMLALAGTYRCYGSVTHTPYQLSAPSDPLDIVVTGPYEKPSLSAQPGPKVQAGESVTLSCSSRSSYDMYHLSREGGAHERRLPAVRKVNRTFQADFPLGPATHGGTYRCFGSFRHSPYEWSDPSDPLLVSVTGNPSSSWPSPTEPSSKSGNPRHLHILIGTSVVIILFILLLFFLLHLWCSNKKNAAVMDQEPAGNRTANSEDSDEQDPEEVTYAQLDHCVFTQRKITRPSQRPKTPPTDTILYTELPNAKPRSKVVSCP

O=P1(N(CCCl)CCCl)NCCCO1 (stereo not shown) [cyclophosphamide]
effect on KIR3DL2 expression (RAJI-KIR3DL2 cells): did not increase KIR3DL2 expression | effect on KIR3DL2 expression (Hut78 cells): did not increase KIR3DL2 expression

Nc1ccn([C@@H]2O[C@H](CO)[C@@H](O)C2(F)F)c(=O)n1 [gemcitabine]
effect on anti-KIR3DL2 antibody-induced ADCC / anti-tumor activity against HUT78 [1]: enhanced

O=C1[O][Pt]2([NH][C@@H]3CCCC[C@H]3[NH]2)[O]C1=O [oxaliplatin]
effect on anti-KIR3DL2 antibody-induced ADCC / anti-tumor activity against HUT78 [1]: enhanced | anti-tumor activity in vivo (RAJI-KIR3DL2): very limited, if any, anti-tumor effect

B1: IPH4102: humanized 2B12 anti-KIR3DL2 antibody, human IgG1, VH SEQ ID NO: 49 and VL SEQ ID NO: 44 (antibody, V domains shown)
VH: QIQLVQSGSELKKPGASVKVSCKASGYTFTTAGMQWVRQAPGQGLEWIGWINSHSGVPKYAEDFKGRFVFSLDTSVSTAYLQISSLKAEDTAVYFCARGGDEGVMDYWGQGTTVTVSS
VL: DIQMTQSPSFLSASVGDRVTITCKASQDVSTAVAWYQQKPGQPPKLLIYWTSTRHTGVPDRFSGSGSGTDYTLTISSLQAEDVAVYYCQQHYSTPWTFGGGTKVEIK
median duration of response (DoR) (refractory SS patients): 13.8 months | median progression-free survival (PFS) (refractory SS patients): 11.7 months | overall response rate (ORR) (refractory SS patients): 42.9%

B2: 19H12: anti-KIR3DL2 antibody, VH SEQ ID NO: 5, VL SEQ ID NO: 6 (antibody, V domains shown)
VH: QIQLVQSGPELKKPGETVKISCKASGYTFTNFGMNWVKQAPGKGLKWMGWINTYTGEPTYADDFKGRFAFSLETSASTAYLQINNLKNEDMATYFCARNGNFGYYFDYWGQGTTLTVSS
VL: DVLMTQTPLSLPVSLGDQASFSCRSSQNIVHSNGNTYLEWYLQKPGQSPSLLIYKVSNRFSGVPDRFSGSGSGTDFTLKITRVEAEDLGVYYCFQGSHVPFTFGSGTKLEIK
modifications: mus musculus
internalization via KIR3DL2 (KIR3DL2 [2]): capable of being internalized

B3: AZ158: antibody binding human KIR3DL2 and KIR3DL1, VH SEQ ID NO: 3, VL SEQ ID NO: 4 (antibody, V domains shown)
VH: QVQLKESGPGLVAPSQSLSITCTVSGFSLTSFGVHWVRQPPGKGLEWLGVIWAGGSTNYNSALMSRLSISKDNSKSQVFLKMNSLQNDDTAMYYCARGNSNHYVSSFYYFDYWGQGTTLTVSS
VL: DIQMTQSPSSLSASLGGKVTITCKASQDINKYIAWYQHKPGKGPRLLIHYTSTLQPGIPSRFSGSGSGRDYSFSISNLEPEDITTYYCLQYDNLWTFGGGTKLEIK
modifications: mus musculus
binding to KIR3DL2 (KIR3DL2 [3]): binds | binding to KIR3DL1 (human KIR3DL1): binds

B4: 2B12: anti-KIR3DL2 antibody, VH SEQ ID NO: 32, VL SEQ ID NO: 33 (antibody, listed as Mus musculus, V domains shown)
VH: QIQLVQSGPELKKPGETVRISCKASGYTFTTAGMQWVQKTPGKGLKWIGWINSHSGVPKYAEDFKGRFAFSLETSASTAYLQISTLKNEDTATYFCARGGDEGVMDYWGQGTSVTVS
VL: DIVMTQSHKFMSTSLGDRVSFTCKASQDVSTAVAWYQQKPGQSPKLLIYWTSTRHTGVPDRFTGSGSGTDYTLTISSVQAEDLALYYCQQHYSTPWTFGGGTKLEIK
internalization via KIR3DL2 (KIR3DL2 [2]): do not induce any KIR3DL2 internalization

B5: 12B11: anti-KIR3DL2 antibody, VH SEQ ID NO: 16, VL SEQ ID NO: 17 (antibody, listed as Mus musculus, V domains shown)
VH: QLVQSGPELKNPGETVKISCKASGYTFTNYGMNWVKQAPGKGLKWMGWINTYTGEPTYADDFKGRFAFSLETSASTAYLQINNLKNEDTATYFCAHGPWLAYWGQGTLVTVS
VL: DIKMTQSPSSMYASLGERVTITCKASQDINVYLSWFQQKPGKSPKTLIYRAIRLVDGVPSRFSGSGSGQDYSLTISSLDYEDMGIYYCLQYDELPYTFGGGTKLEIE
internalization via KIR3DL2 (KIR3DL2 [2]): capable of being internalized
